Results from PMC4434323.

Assays:
[1] = biological target: T1, hlh-12 (C28C12.8) (Caenorhabditis elegans) (UniProt Q18277)
T1 sequence: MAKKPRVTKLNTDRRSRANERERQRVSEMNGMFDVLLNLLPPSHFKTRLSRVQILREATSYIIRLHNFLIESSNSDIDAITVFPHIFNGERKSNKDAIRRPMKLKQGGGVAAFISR

[2] = biological target: T2, mbr-1 (T01C1.2) (Caenorhabditis elegans) (UniProt G5EGQ5)
T2 sequence: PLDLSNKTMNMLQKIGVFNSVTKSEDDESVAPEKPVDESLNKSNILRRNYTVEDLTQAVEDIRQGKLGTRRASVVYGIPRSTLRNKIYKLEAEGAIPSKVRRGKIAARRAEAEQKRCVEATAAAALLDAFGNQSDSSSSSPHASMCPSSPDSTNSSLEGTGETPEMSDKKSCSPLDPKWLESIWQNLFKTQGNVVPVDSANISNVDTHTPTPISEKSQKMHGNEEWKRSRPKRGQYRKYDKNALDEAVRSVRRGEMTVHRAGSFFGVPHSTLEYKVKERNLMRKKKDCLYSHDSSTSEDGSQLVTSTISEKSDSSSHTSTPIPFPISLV

[3] = biological target: T3, nhr-142 (F44E7.8) (Caenorhabditis elegans) (UniProt J7SF93)
T3 sequence: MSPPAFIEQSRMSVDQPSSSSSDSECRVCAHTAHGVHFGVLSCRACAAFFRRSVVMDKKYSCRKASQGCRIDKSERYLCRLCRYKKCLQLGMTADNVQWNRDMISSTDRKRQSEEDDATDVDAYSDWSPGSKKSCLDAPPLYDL

[4] = biological target: T4, nhr-232 (Y22F5A.1) (Caenorhabditis elegans) (UniProt A0A486WVR6)
T4 sequence: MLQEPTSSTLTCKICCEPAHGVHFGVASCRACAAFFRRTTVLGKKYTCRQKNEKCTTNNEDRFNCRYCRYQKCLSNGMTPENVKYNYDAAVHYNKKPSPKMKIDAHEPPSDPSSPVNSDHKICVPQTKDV

[5] = biological target: T5, nhr-42 (C33G8.6) (Caenorhabditis elegans) (UniProt O76828)
T5 sequence: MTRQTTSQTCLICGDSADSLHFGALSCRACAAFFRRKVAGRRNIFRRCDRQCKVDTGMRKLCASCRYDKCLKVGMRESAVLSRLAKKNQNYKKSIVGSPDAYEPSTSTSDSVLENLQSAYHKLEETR

[6] = biological target: T6, skn-1 (T19E7.2) (Caenorhabditis elegans) (UniProt P34707)
T6 sequence: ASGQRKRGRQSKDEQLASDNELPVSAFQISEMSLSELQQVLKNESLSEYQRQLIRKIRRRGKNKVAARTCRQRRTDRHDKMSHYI

[7] = biological target: T7, nhr-66 (T09A12.4) (Caenorhabditis elegans) (UniProt H2KYJ8)
T7 sequence: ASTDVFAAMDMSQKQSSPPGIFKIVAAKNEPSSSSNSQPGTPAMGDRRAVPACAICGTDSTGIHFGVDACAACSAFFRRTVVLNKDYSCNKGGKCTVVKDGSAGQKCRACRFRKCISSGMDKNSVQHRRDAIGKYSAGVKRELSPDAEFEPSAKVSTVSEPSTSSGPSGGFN

[8] = biological target: T8, nhr-70 (Y51A2D.17) (Caenorhabditis elegans) (UniProt G5EEL3)
T8 sequence: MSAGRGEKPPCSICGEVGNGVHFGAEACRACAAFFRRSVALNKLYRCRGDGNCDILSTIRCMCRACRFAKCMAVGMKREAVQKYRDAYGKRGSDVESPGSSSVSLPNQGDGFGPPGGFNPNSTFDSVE

[9] = biological target: T9, odr-7 (T18D3.2) (Caenorhabditis elegans) (UniProt P41933)
T9 sequence: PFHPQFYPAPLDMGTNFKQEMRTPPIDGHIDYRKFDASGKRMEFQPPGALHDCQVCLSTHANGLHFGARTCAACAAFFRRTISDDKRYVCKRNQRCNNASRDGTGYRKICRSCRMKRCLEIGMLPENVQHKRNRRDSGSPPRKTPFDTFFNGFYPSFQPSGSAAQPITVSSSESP

In the case of “AACAGATG (double strand) [8-mer AACAGATG]”, the binding signal (PBM E-score (-0.5 to 0.5)) [1] is reported as 0.468.
Sequence “AACAGCTG (double strand) [8-mer AACAGCTG]” has a binding signal (PBM E-score (-0.5 to 0.5)) [1] of 0.481.
Sequence “AACATATG (double strand) [8-mer AACATATG]” has a binding signal (PBM E-score (-0.5 to 0.5)) [1] of 0.465.
In the case of “AACATCTG (double strand) [8-mer AACATCTG]”, the binding signal (PBM E-score (-0.5 to 0.5)) [1] is reported as 0.481.
“AAGGCCCC (double strand) [8-mer AAGGCCCC]” was tested, and the binding signal (PBM E-score (-0.5 to 0.5)) [2] was 0.489.
“AAGGGGCC (double strand) [8-mer AAGGGGCC]” showed a binding signal (PBM E-score (-0.5 to 0.5)) [2] of 0.487.
With “AAGTCACA (double strand) [8-mer AAGTCACA]” the binding signal (PBM E-score (-0.5 to 0.5)) [3] was 0.496, the binding signal (PBM E-score (-0.5 to 0.5)) [4] was 0.498 and the binding signal (PBM E-score (-0.5 to 0.5)) [5] was 0.494.
Work on “AATGTCAT (double strand) [8-mer AATGTCAT]” yielded a binding signal (PBM E-score (-0.5 to 0.5)) [6] of 0.487.
For “ACAGATGG (double strand) [8-mer ACAGATGG]”, the binding signal (PBM E-score (-0.5 to 0.5)) [1] was 0.478.
For “ACAGATGT (double strand) [8-mer ACAGATGT]”, the binding signal (PBM E-score (-0.5 to 0.5)) [1] was 0.478.
“ACAGCTGG (double strand) [8-mer ACAGCTGG]” gave a binding signal (PBM E-score (-0.5 to 0.5)) [1] of 0.481.
“ACAGCTGT (double strand) [8-mer ACAGCTGT]” gave a binding signal (PBM E-score (-0.5 to 0.5)) [1] of 0.496.
In the case of “ACATATGT (double strand) [8-mer ACATATGT]”, the binding signal (PBM E-score (-0.5 to 0.5)) [1] is reported as 0.476.
“ACATCTGG (double strand) [8-mer ACATCTGG]” was tested, and the binding signal (PBM E-score (-0.5 to 0.5)) [1] was 0.481.
Work on “ACTACAAT (double strand) [8-mer ACTACAAT]” yielded a binding signal (PBM E-score (-0.5 to 0.5)) [7] of 0.488, a binding signal (PBM E-score (-0.5 to 0.5)) [8] of 0.49 and a binding signal (PBM E-score (-0.5 to 0.5)) [9] of 0.49.
With “AGACTACA (double strand) [8-mer AGACTACA]” the binding signal (PBM E-score (-0.5 to 0.5)) [7] was 0.487 and the binding signal (PBM E-score (-0.5 to 0.5)) [8] was 0.486.
“AGCCCCCC (double strand) [8-mer AGCCCCCC]” gave a binding signal (PBM E-score (-0.5 to 0.5)) [2] of 0.491.
“AGGATGAC (double strand) [8-mer AGGATGAC]” was tested, and the binding signal (PBM E-score (-0.5 to 0.5)) [6] was 0.489.
“AGGCCCCC (double strand) [8-mer AGGCCCCC]” was tested, and the binding signal (PBM E-score (-0.5 to 0.5)) [2] was 0.495.
Work on “AGGCCCCT (double strand) [8-mer AGGCCCCT]” yielded a binding signal (PBM E-score (-0.5 to 0.5)) [2] of 0.491.
For “AGGCTACA (double strand) [8-mer AGGCTACA]”, the binding signal (PBM E-score (-0.5 to 0.5)) [8] was 0.488.
Sequence “AGGGGCCA (double strand) [8-mer AGGGGCCA]” has a binding signal (PBM E-score (-0.5 to 0.5)) [2] of 0.492.
Work on “AGGGGGGC (double strand) [8-mer AGGGGGGC]” yielded a binding signal (PBM E-score (-0.5 to 0.5)) [2] of 0.491.
For “AGGTCACA (double strand) [8-mer AGGTCACA]”, the binding signal (PBM E-score (-0.5 to 0.5)) [3] was 0.486, the binding signal (PBM E-score (-0.5 to 0.5)) [4] was 0.455 and the binding signal (PBM E-score (-0.5 to 0.5)) [5] was 0.486.
“AGTCACAA (double strand) [8-mer AGTCACAA]” showed a binding signal (PBM E-score (-0.5 to 0.5)) [3] of 0.498, a binding signal (PBM E-score (-0.5 to 0.5)) [4] of 0.497 and a binding signal (PBM E-score (-0.5 to 0.5)) [5] of 0.489.
With “AGTCACAC (double strand) [8-mer AGTCACAC]” the binding signal (PBM E-score (-0.5 to 0.5)) [3] was 0.49, the binding signal (PBM E-score (-0.5 to 0.5)) [4] was 0.48 and the binding signal (PBM E-score (-0.5 to 0.5)) [5] was 0.489.
Work on “AGTCACAG (double strand) [8-mer AGTCACAG]” yielded a binding signal (PBM E-score (-0.5 to 0.5)) [3] of 0.492 and a binding signal (PBM E-score (-0.5 to 0.5)) [4] of 0.465.
In the case of “AGTCATAA (double strand) [8-mer AGTCATAA]”, the binding signal (PBM E-score (-0.5 to 0.5)) [3] is reported as 0.491 and the binding signal (PBM E-score (-0.5 to 0.5)) [4] is reported as 0.48.
Sequence “AGTCATCA (double strand) [8-mer AGTCATCA]” has a binding signal (PBM E-score (-0.5 to 0.5)) [6] of 0.491.
With “ATATCATC (double strand) [8-mer ATATCATC]” the binding signal (PBM E-score (-0.5 to 0.5)) [6] was 0.485.
“ATGACAAA (double strand) [8-mer ATGACAAA]” was tested, and the binding signal (PBM E-score (-0.5 to 0.5)) [6] was 0.493.
“ATGACAAT (double strand) [8-mer ATGACAAT]” showed a binding signal (PBM E-score (-0.5 to 0.5)) [6] of 0.495.
